± gives the uncertainty stated by the source.
Assay: self-splicing fitness, log relative to wild type (ln ratio); higher = more splicing; Tetrahymena group I intron in knt gene, E. coli kanamycin selection, DiMSum; sequences stand for … in CUCUCU…GGAGGGAAAAGUUAUCAGGCAUGCACCUGGUAGCUAGUCUUUAAACCAAUAGAUUGCAUCGGUUUAAAAGGCAAGACCGUCAAAUUGCGGGAAAGGGGUCAACAGCCGUUCAGUACCAAGUCUCAGGGGAAACUUUGAGAUGGCCUUGCAAAGGGUAUGGUAAUAAGCUGACGGACAUGGUCCUAACCACGCAGCCAAGUCCUAAGUCAACAGAUCUUCUGUUGAUAUGGAUGCAGUUCACAGACUAAAUGUCGGUCGGGGAAGAUGUAUUCUUCUCAUAAGAUAUAGUCGGACCUCUCCUUAAUGGGAGCUAGCGGAUGAAGUGAUGCAACACUGGAGCCGCUGGGAACUAAUUUGUAUGCGAAAGUAUAUUGAUUAGUUUUGGAGUACUCGUGGUCG
Outline: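 A randomised library covering all eight P1ex-region intron nucleotides was built with the intron in the knt kanamycin-resistance gene on pET-22b(+) and held in E. coli BL21(DE3). Cells were grown overnight at 37°C or 30°C on LB agar, with or without 25 μg/mL kanamycin, plus 100 μg/mL carbenicillin, 50 μM IPTG and 0.2% rhamnose, and pooled colonies were amplicon-sequenced on an Illumina HiSeq 2500. DiMSum fitness is the error-weighted combination of wild-type-normalised replicate fold changes, kanamycin versus none.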

Sequence	self-splicing fitness (ln) (30 °C)	self-splicing fitness (ln) (37 °C)
UACCAGCAAUAUUACGGUAG	-2.15 ± 0.086	-1.16 ± 0.083
UACCAGCAAUAUUACGGUCU	-0.501 ± 0.056	0.24 ± 0.067
UACCAGCAAUAUUACGUACG	-0.42 ± 0.12	-0.594 ± 0.15
UACCAGCAAUAUUACGUCCA	-0.321 ± 0.081	0.176 ± 0.091
UACCAGCAAUAUUACGUCUU	-1.99 ± 0.08	-0.209 ± 0.086
UACCAGCAAUAUUACGUGGG	-3.76 ± 0.11	-2.52 ± 0.1
UACGAGCAAUAUUACGAACA	-2.11 ± 0.27	-2.13 ± 0.29
UACGAGCAAUAUUACGAAUA	-3.28 ± 0.47	-2.87 ± 0.48
UACGAGCAAUAUUACGAAUG	-2.56 ± 0.12	-1.68 ± 0.15
UACGAGCAAUAUUACGACGU	-2.08 ± 0.23	-2.12 ± 0.27
UACGAGCAAUAUUACGAGAA	-2.33 ± 0.35	
UACGAGCAAUAUUACGAUGC		-2.04 ± 0.33
UACGAGCAAUAUUACGCACA	-3.08 ± 0.26	-1.29 ± 0.21
UACGAGCAAUAUUACGCAUA	-3.17 ± 0.19	-0.975 ± 0.13
UACGAGCAAUAUUACGCCUC		-2.06 ± 0.34
UACGAGCAAUAUUACGCUAU	-2.4 ± 0.14	-3.49 ± 0.29
UACGAGCAAUAUUACGCUUC	-2.53 ± 0.25	-1.32 ± 0.3
UACGAGCAAUAUUACGGCGA	-1.39 ± 0.15	-0.508 ± 0.15
UACGAGCAAUAUUACGGGAG	-3.43 ± 0.22	-2.72 ± 0.39
UACGAGCAAUAUUACGGGUC	-3.23 ± 0.26	-3.06 ± 0.43
UACGAGCAAUAUUACGGUCG	-0.828 ± 0.076	-0.0425 ± 0.099
UACGAGCAAUAUUACGUAAA	-3.61 ± 0.29	-2.84 ± 0.26
UACGAGCAAUAUUACGUAUG	-3.49 ± 0.23	-3.34 ± 0.24
UACGAGCAAUAUUACGUCAA		-2.31 ± 0.46
UACGAGCAAUAUUACGUGGG	-3.25 ± 0.14	-2.88 ± 0.19
UACGAGCAAUAUUACGUUGU	-3.36 ± 0.16	-2.68 ± 0.18

Sequence	self-splicing fitness (ln) (30 °C)	self-splicing fitness (ln) (37 °C)
UACUAGCAAUAUUACGAAAC		-2.1 ± 0.32
UACUAGCAAUAUUACGAAGA	-2.32 ± 0.19	-1.86 ± 0.25
UACUAGCAAUAUUACGAAUC	-2.81 ± 0.18	-3.38 ± 0.35
UACUAGCAAUAUUACGACCA	0.122 ± 0.088	-0.816 ± 0.1
UACUAGCAAUAUUACGAGGU	-3.47 ± 0.42	-2 ± 0.29
UACUAGCAAUAUUACGAUAG	-1.44 ± 0.12	-0.923 ± 0.14
UACUAGCAAUAUUACGAUCU	-1.31 ± 0.13	-0.847 ± 0.14
UACUAGCAAUAUUACGAUUU	-2.36 ± 0.12	-0.92 ± 0.15
UACUAGCAAUAUUACGCCAA	0.284 ± 0.44	-1.02 ± 0.25
UACUAGCAAUAUUACGGACC		-1.13 ± 0.33
UACUAGCAAUAUUACGGCAA	-0.353 ± 0.12	0.301 ± 0.12
UACUAGCAAUAUUACGGGAA	-1.95 ± 0.13	-0.547 ± 0.1
UACUAGCAAUAUUACGGGCC	-3.27 ± 0.17	-3.17 ± 0.23
UACUAGCAAUAUUACGGUCA	0.103 ± 0.086	0.31 ± 0.083
UACUAGCAAUAUUACGGUGU	-3.74 ± 0.23	-2.65 ± 0.29
UACUAGCAAUAUUACGUAAU	-2.63 ± 0.17	-1.93 ± 0.22
UACUAGCAAUAUUACGUAGA	-1.84 ± 0.11	-1.95 ± 0.16
UACUAGCAAUAUUACGUGUU	-3.16 ± 0.15	-0.975 ± 0.13
UACUAGCAAUAUUACGUUAA	-2.1 ± 0.18	-1.43 ± 0.18
UAGAAGCAAUAUUACGAUAA	-1.05 ± 0.11	-0.854 ± 0.12
UAGAAGCAAUAUUACGAUUG	-1.74 ± 0.07	-0.442 ± 0.083
UAGAAGCAAUAUUACGCAAA	-1.24 ± 0.22	-1.03 ± 0.31
UAGAAGCAAUAUUACGCCGG	-0.817 ± 0.12	-0.196 ± 0.18
UAGAAGCAAUAUUACGCUUG	-2.11 ± 0.11	-1.05 ± 0.12
UAGAAGCAAUAUUACGGAAG	-2.16 ± 0.22	-0.543 ± 0.23
UAGAAGCAAUAUUACGGCAA	-0.122 ± 0.075	-0.249 ± 0.088

Sequence	self-splicing fitness (ln) (30 °C)	self-splicing fitness (ln) (37 °C)
UAGAAGCAAUAUUACGGGCG	0.0568 ± 0.11	-0.38 ± 0.13
UAGAAGCAAUAUUACGGGUC	-3.55 ± 0.33	-2.84 ± 0.44
UAGAAGCAAUAUUACGGUUA	0.144 ± 0.094	-0.007 ± 0.086
UAGAAGCAAUAUUACGUACU	-1.22 ± 0.1	-0.355 ± 0.14
UAGAAGCAAUAUUACGUCCG	0.777 ± 0.14	-0.199 ± 0.16
UAGAAGCAAUAUUACGUCUG	-1.12 ± 0.064	-0.959 ± 0.076
UAGAAGCAAUAUUACGUGAC	-3.33 ± 0.24	-2.28 ± 0.28
UAGAAGCAAUAUUACGUGCC	-2.13 ± 0.22	-0.962 ± 0.19
UAGAAGCAAUAUUACGUGUA	-1.95 ± 0.11	-0.392 ± 0.09
UAGAAGCAAUAUUACGUUUU	-3.58 ± 0.17	-2.85 ± 0.18
UAGCAGCAAUAUUACGAACA	-0.591 ± 0.069	0.237 ± 0.081
UAGCAGCAAUAUUACGAGCC	-2.62 ± 0.23	-1.9 ± 0.3
UAGCAGCAAUAUUACGAGGG	-1.97 ± 0.21	-1.96 ± 0.27
UAGCAGCAAUAUUACGAGUA	-1.39 ± 0.14	-0.225 ± 0.14
UAGCAGCAAUAUUACGAUUG	-0.536 ± 0.12	-0.509 ± 0.14
UAGCAGCAAUAUUACGCAGU	-3.58 ± 0.47	-2.18 ± 0.21
UAGCAGCAAUAUUACGCCUC	-3.28 ± 0.16	-1.11 ± 0.12
UAGCAGCAAUAUUACGCGGC	-3.84 ± 0.22	-1.6 ± 0.21
UAGCAGCAAUAUUACGCUUC	-3.05 ± 0.34	-2.25 ± 0.33
UAGCAGCAAUAUUACGGAAU	-3.87 ± 0.44	-2.13 ± 0.33
UAGCAGCAAUAUUACGGACA	-0.821 ± 0.11	-0.11 ± 0.13
UAGCAGCAAUAUUACGGCGA	-0.238 ± 0.077	0.939 ± 0.1
UAGCAGCAAUAUUACGGCUG	-3.72 ± 0.35	-2.64 ± 0.28
UAGCAGCAAUAUUACGGGCA	-0.608 ± 0.11	-0.41 ± 0.1
UAGCAGCAAUAUUACGGUUG	-1.17 ± 0.092	-0.442 ± 0.12
